The supplement of paper PMC5998384

Key:
HeLa Kyoto [1] = assay: solubility change mitosis vs G1/S (difference of NP-40 vs SDS log2 ratios) (log2 ratio difference); higher = more soluble in mitosis
HeLa Kyoto [2] = assay: solubility in G1/S (NP-40 vs SDS abundance) (log2 ratio); higher = more soluble; conditions: cell cycle stage: G1/S
HeLa Kyoto [3] = assay: thermal stability score vs G1/S (z-score of summed log2 fold changes over temperatures); higher = more thermally stable than in G1/S
HeLa Kyoto [4] = assay: melting temperature (median over replicates), in situ; higher = more thermally stable
[5] = cell cycle stage: early G1 (4.5 h after nocodazole release)
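Wherever melting temperature (median over replicates), in situ is given: HeLa Kyoto cells synchronized by double thymidine or nocodazole block, proteins quantified by TMT10plex mass spectrometry, three independent biological replicates.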
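Wherever solubility change mitosis vs G1/S (difference of NP-40 vs SDS log2 ratios) is given: synchronized HeLa Kyoto cells (double thymidine block for G1/S, nocodazole release for mitosis), protein amounts in NP-40 versus SDS lysates quantified by mass spectrometry, three biological replicates.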
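Wherever solubility in G1/S (NP-40 vs SDS abundance) is given: HeLa Kyoto cells arrested at G1/S by double thymidine block, proteins quantified by TMT10plex mass spectrometry in mild NP-40 versus SDS extracts, three biological replicates.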
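Wherever thermal stability score vs G1/S (z-score of summed log2 fold changes over temperatures) is given: synchronized HeLa Kyoto cells, proteins quantified by TMT10plex mass spectrometry, three biological replicates, mitosis taken 0.5 h after nocodazole release, G1/S directly after double thymidine block.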

| Sequence | solubility change mitosis (log2) (HeLa Kyoto [1]) | solubility in G1/S (log2) (HeLa Kyoto [2]) | thermal stability score (HeLa Kyoto [3]; [5]) | thermal stability score (HeLa Kyoto [3]; cell cycle stage: mitosis) | melting temperature (HeLa Kyoto [4]; cell cycle stage: G1/S) [°C] | melting temperature (HeLa Kyoto [4]; cell cycle stage: mitosis) [°C] |
| --- | --- | --- | --- | --- | --- | --- |
| MATGLGEPVYGLSEDEGESRILRVKVVSGIDLAKKDIFGASDPYVKLSLYVADENRELALVQTKTIKKTLNPKWNEEFYFRVNPSNHRLLFEVFDENRLTRDDFLGQVDVPLSHLPTEDPTMERPYTFKDFLLRPRSHKSRVKGFLRLKMAYMPKNGGQDEENSDQRDDMEHGWEVVDSNDSASQHQEELPPPPLPPGWEEKVDNLGRTYYVNHNNRTTQWHRPSLMDVSSESDNNIRQINQEAAHRRFRSRRHISEDLEPEPSEGGDVPEPWETISEEVNIAGDSLGLALPPPPASPGSRTSPQELSEELSRRLQITPDSNGEQFSSLIQREPSSRLRSCSVTDAVAEQGHLPPPSAPAGRARSSTVTGGEEPTPSVAYVHTTPGLPSGWEERKDAKGRTYYVNHNNRTTTWTRPIMQLAEDGASGSATNSNNHLIEPQIRRPRSLSSPTVTLSAPLEGAKDSPVRRAVKDTLSNPQSPQPSPYNSPKPQHKVTQSFLPPGWEMRIAPNGRPFFIDHNTKTTTWEDPRLKFPVHMRSKTSLNPNDLGPLPPGWEERIHLDGRTFYIDHNSKITQWEDPRLQNPAITGPAVPYSREFKQKYDYFRKKLKKPADIPNRFEMKLHRNNIFEESYRRIMSVKRPDVLKARLWIEFESEKGLDYGGVAREWFFLLSKEMFNPYYGLFEYSATDNYTLQINPNSGLCNEDHLSYFTFIGRVAGLAVFHGKLLDGFFIRPFYKMMLGKQITLNDMESVDSEYYNSLKWILENDPTELDLMFCIDEENFGQTYQVDLKPNGSEIMVTNENKREYIDLVIQWRFVNRVQKQMNAFLEGFTELLPIDLIKIFDENELELLMCGLGDVDVNDWRQHSIYKNGYCPNHPVIQWFWKAVLLMDAEKRIRLLQFVTGTSRVPMNGFAELYGSNGPQLFTIEQWGSPEKLPRAHTCFNRLDLPPYETFEDLREKLLMAVENAQGFEGVD [NEDD4L] | -0.189 | -0.0714 | 0.949 | 2.33 | 50 | 49.6 |
| MATIPDWKLQLLARRRQEEASVRGREKAERERLSQMPAWKRGLLERRRAKLGLSPGEPSPVLGTVEAGPPDPDESAVLLEAIGPVHQNRFIRQERQQQQQQQQRSEELLAERKPGPLEARERRPSPGEMRDQSPKGRESREERLSPRETRERRLGIGGAQELSLRPLEARDWRQSPGEVGDRSSRLSEAWKWRLSPGETPERSLRLAESREQSPRRKEVESRLSPGESAYQKLGLTEAHKWRPDSRESQEQSLVQLEATEWRLRSGEERQDYSEECGRKEEWPVPGVAPKETAELSETLTREAQGNSSAGVEAAEQRPVEDGERGMKPTEGWKWTLNSGKAREWTPRDIEAQTQKPEPPESAEKLLESPGVEAGEGEAEKEEAGAQGRPLRALQNCCSVPSPLPPEDAGTGGLRQQEEEAVELQPPPPAPLSPPPPAPTAPQPPGDPLMSRLFYGVKAGPGVGAPRRSGHTFTVNPRRSVPPATPATPTSPATVDAAVPGAGKKRYPTAEEILVLGGYLRLSRSCLAKGSPERHHKQLKISFSETALETTYQYPSESSVLEELGPEPEVPSAPNPPAAQPDDEEDEEELLLLQPELQGGLRTKALIVDESCRR [PPP1R18] | 0.428 | -0.53 | 0.778 | 0.67 | 52.5 | 52 |
| MATLRRLREAPRHLLVCEKSNFGNHKSRHRHLVQTHYYNYRVSFLIPECGILSEELKNLVMNTGPYYFVKNLPLHELITPEFISTFIKKGSCYALTYNTHIDEDNTVALLPNGKLILSLDKDTYEETGLQGHPSQFSGRKIMKFIVSIDLMELSLNLDSKKYERISWSFKEKKPLKFDFLLAWHKTGSEESTMMSYFSKYQIQEHQPKVALSTLRDLQCPVLQSSELEGTPEVSCRALELFDWLGAVFSNVDLNNEPNNFISTYCCPEPSTVVAKAYLCTITGFILPEKICLLLEHLCHYFDEPKLAPWVTLSVQGFADSPVSWEKNEHGFRKGGEHLYNFVIFNNQDYWLQMAVGANDHCPP [RPP40] | -0.00249 | -0.386 | -1.89 | -4.46 | 55.5 | 56.5 |
| MATPVVTKTAWKLQEIVAHASNVSSLVLGKASGRLLATGGDDCRVNLWSINKPNCIMSLTGHTSPVESVRLNTPEELIVAGSQSGSIRVWDLEAAKILRTLMGHKANICSLDFHPYGEFVASGSQDTNIKLWDIRRKGCVFRYRGHSQAVRCLRFSPDGKWLASAADDHTVKLWDLTAGKMMSEFPGHTGPVNVVEFHPNEYLLASGSSDRTIRFWDLEKFQVVSCIEGEPGPVRSVLFNPDGCCLYSGCQDSLRVYGWEPERCFDVVLVNWGKVADLAICNDQLIGVAFSQSNVSSYVVDLTRVTRTGTVARDPVQDHRPLAQPLPNPSAPLRRIYERPSTTCSKPQRVKQNSESERRSPSSEDDRDERESRAEIQNAEDYNEIFQPKNSISRTPPRRSEPFPAPPEDDAATAKEAAKPSPAMDVQFPVPNLEVLPRPPVVASTPAPKAEPAIIPATRNEPIGLKASDFLPAVKIPQQAELVDEDAMSQIRKGHDTMCVVLTSRHKNLDTVRAVWTMGDIKTSVDSAVAINDLSVVVDLLNIVNQKASLWKLDLCTTVLPQIEKLLQSKYESYVQTGCTSLKLILQRFLPLITDMLAAPPSVGVDISREERLHKCRLCYKQLKSISGLVKSKSGLSGRHGSTFRELHLLMASLD [KATNB1] | -0.0538 | -0.135 | 0.62 | 0.499 | 50.5 | 51 |
| MATSATSPHAPGFPAEGRCGYYVEKKKRFCRMVVAAGKRFCGEHAGAAEEEDARKRILCPLDPKHTVYEDQLAKHLKKCNSREKPKPDFYIQDINAGLRDETEIPEQLVPISSLSEEQLEKLIKKLRKASEGLNSTLKDHIMSHPALHDALNDPKNGDSATKHLKQQASILGNIENLKLLGPRRCFVEFGAGKGKLSHWVDIALKDAEKVHFILVEKVTTRFKVDGKHRKKNSVFERLQIDIQHLCLNKIPVLREEKLPVVGIGKHLCGMATDLALRCLVETYAASFEERNEEPLAKRIKNDKTEKEIYTLAKEGNEKNVPEKWNPVAGIVIALCCHHRCDWRHYVGKEYFRALGLGAVEFHYFQRMSSWATCGMRKTSLETSNSTTKRQDNQNDDSEEHDDGGYRITDDGADCLPGLLSVEEKKKIGHLCKLLIDQGRIQYLQQKGFSPALQYYTDPLVSLENVLLTALPNHSSSPETTA [TRMT13] | -0.0657 | 0.027 | 1.03 | 0.684 |  | 50.3 |
| MATSLGSNTYNRQNWEDADFPILCQTCLGENPYIRMTKEKYGKECKICARPFTVFRWCPGVRMRFKKTEVCQTCSKLKNVCQTCLLDLEYGLPIQVRDAGLSFKDDMPKSDVNKEYYTQNMEREISNSDGTRPVGMLGKATSTSDMLLKLARTTPYYKRNRPHICSFWVKGECKRGEECPYRHEKPTDPDDPLADQNIKDRYYGINDPVADKLLKRASTMPRLDPPEDKTITTLYVGGLGDTITETDLRNHFYQFGEIRTITVVQRQQCAFIQFATRQAAEVAAEKSFNKLIVNGRRLNVKWGRSQAARGKEKEKDGTTDSGIKLEPVPGLPGALPPPPAAEEEASANYFNLPPSGPPAVVNIALPPPPGIAPPPPPGFGPHMFHPMGPPPPFMRAPGPIHYPSQDPQRMGAHAGKHSSP [RBM22] | 0.274 | -0.116 | -0.922 | -0.478 | 48.6 | 49.8 |
| MATSNLLKNKGSLQFEDKWDFMRPIVLKLLRQESVTKQQWFDLFSDVHAVCLWDDKGPAKIHQALKEDILEFIKQAQARVLSHQDDTALLKAYIVEWRKFFTQCDILPKPFCQLEITLMGKQGSNKKSNVEDSIVRKLMLDTWNESIFSNIKNRLQDSAMKLVHAERLGEAFDSQLVIGVRESYVNLCSNPEDKLQIYRDNFEKAYLDSTERFYRTQAPSYLQQNGVQNYMKYADAKLKEEEKRALRYLETRRECNSVEALMECCVNALVTSFKETILAECQGMIKRNETEKLHLMFSLMDKVPNGIEPMLKDLEEHIISAGLADMVAAAETITTDSEKYVEQLLTLFNRFSKLVKEAFQDDPRFLTARDKAYKAVVNDATIFKLELPLKQKGVGLKTQPESKCPELLANYCDMLLRKTPLSKKLTSEEIEAKLKEVLLVLKYVQNKDVFMRYHKAHLTRRLILDISADSEIEENMVEWLREVGMPADYVNKLARMFQDIKVSEDLNQAFKEMHKNNKLALPADSVNIKILNAGAWSRSSEKVFVSLPTELEDLIPEVEEFYKKNHSGRKLHWHHLMSNGIITFKNEVGQYDLEVTTFQLAVLFAWNQRPREKISFENLKLATELPDAELRRTLWSLVAFPKLKRQVLLYEPQVNSPKDFTEGTLFSVNQEFSLIKNAKVQKRGKINLIGRLQLTTERMREEENEGIVQLRILRTQEAIIQIMKMRKKISNAQLQTELVEILKNMFLPQKKMIKEQIEWLIEHKYIRRDESDINTFIYMA [CUL5] | -0.233 | -0.152 | -0.282 | -0.5 | 55.6 | 54 |
| MATYTCITCRVAFRDADMQRAHYKTDWHRYNLRRKVASMAPVTAEGFQERVRAQRAVAEEESKGSATYCTVCSKKFASFNAYENHLKSRRHVELEKKAVQAVNRKVEMMNEKNLEKGLGVDSVDKDAMNAAIQQAIKAQPSMSPKKAPPAPAKEARNVVAVGTGGRGTHDRDPSEKPPRLQWFEQQAKKLAKQQEEDSEEEEEDLDGDDWEDIDSDEELECEDTEAMDDVVEQDAEEEEAEEGPPLGAIPITDCLFCSHHSSSLMKNVAHMTKDHSFFIPDIEYLSDIKGLIKYLGEKVGVGKICLWCNEKGKSFYSTEAVQAHMNDKSHCKLFTDGDAALEFADFYDFRSSYPDHKEGEDPNKAEELPSEKNLEYDDETMELILPSGARVGHRSLMRYYKQRFGLSRAVAVAKNRKAVGRVLQQYRALGWTGSTGAALMRERDMQYVQRMKSKWMLKTGMKNNATKQMHFRVQVRF [ZNF622] | 0.0193 | -0.924 | -2.54 | -0.435 | 53.3 | 53.7 |
| MAVAAAAAAAGPAGAGGGRAQRSGLLEVLVRDRWHKVLVNLSEDALVLSSEEGAAAYNGIGTATNGSFCRGAGAGHPGAGGAQPPDSPAGVRTAFTDLPEQVPESISNQKRGVKVLKQELGGLGISIKGGKENKMPILISKIFKGLAADQTQALYVGDAILSVNGADLRDATHDEAVQALKRAGKEVLLEVKYMREATPYVKKGSPVSEIGWETPPPESPRLGGSTSDPPSSQSFSFHRDRKSIPLKMCYVTRSMALADPENRQLEIHSPDAKHTVILRSKDSATAQAWFSAIHSNVNDLLTRVIAEVREQLGKTGIAGSREIRHLGWLAEKVPGESKKQWKPALVVLTEKDLLIYDSMPRRKEAWFSPVHTYPLLATRLVHSGPGKGSPQAGVDLSFATRTGTRQGIETHLFRAETSRDLSHWTRSIVQGCHNSAELIAEISTACTYKNQECRLTIHYENGFSITTEPQEGAFPKTIIQSPYEKLKMSSDDGIRMLYLDFGGKDGEIQLDLHSCPKPIVFIIHSFLSAKITRLGLVA [SNTB1] | 0.0627 | 0.0289 | 0.836 | 0.333 | 49.9 | 50.2 |
| MAVAGAVSGEPLVHWCTQQLRKTFGLDVSEEIIQYVLSIESAEEIREYVTDLLQGNEGKKGQFIEELITKWQKNDQELISDPLQQCFKKDEILDGQKSGDHLKRGRKKGRNRQEVPAFTEPDTTAEVKTPFDLAKAQENSNSVKKKTKFVNLYTREGQDRLAVLLPGRHPCDCLGQKHKLINNCLICGRIVCEQEGSGPCLFCGTLVCTHEEQDILQRDSNKSQKLLKKLMSGVENSGKVDISTKDLLPHQELRIKSGLEKAIKHKDKLLEFDRTSIRRTQVIDDESDYFASDSNQWLSKLERETLQKREEELRELRHASRLSKKVTIDFAGRKILEEENSLAEYHSRLDETIQAIANGTLNQPLTKLDRSSEEPLGVLVNPNMYQSPPQWVDHTGAASQKKAFRSSGFGLEFNSFQHQLRIQDQEFQEGFDGGWCLSVHQPWASLLVRGIKRVEGRSWYTPHRGRLWIAATAKKPSPQEVSELQATYRLLRGKDVEFPNDYPSGCLLGCVDLIDCLSQKQFKEQFPDISQESDSPFVFICKNPQEMVVKFPIKGNPKIWKLDSKIHQGAKKGLMKQNKAV [TRIP4] | -0.0219 | -0.111 | 1.04 | 0.759 | 50.6 | 49.4 |
